This is an account of results in patent US20190040102A1 (CDRD VENTURES, published 2019).

The experiment has as its target somatostatin receptor type 2 (SSTR2) (UniProt P30874 1-369). Nature of the experiment: cell-based or functional assay.

Starred links: 1 amine or outer side, 2 acyl side, 3 side chain; linkers in the order of their positions; H or OH if unused. Positions of bridges follow the written chain, without caps; N, C: chain ends. Non-standard residues stand in square brackets, D forms with d. *: point of attachment. dPhe(4-phenylureido) = D-4-(phenylureido)Phe, O=C(Nc1ccccc1)Nc1ccc(C[C@@H](N[*:1])C(=O)[*:2])cc1; dPhe(4-CONH2) = NC(=O)c1ccc(C[C@@H](N)C(=O)O)cc1; NMePhe(4-Cl) = CN[C@@H](Cc1ccc(Cl)cc1)C(=O)O; Phe(4-Cl) = N[C@@H](Cc1ccc(Cl)cc1)C(=O)O; NMeY = CN[C@@H](Cc1ccc(O)cc1)C(=O)O; dNMeY = CN[C@H](Cc1ccc(O)cc1)C(=O)O; NMeT = CN[C@H](C(=O)O)[C@@H](C)O; dCit = NC(=O)NCCC[C@@H](N)C(=O)O; Nicotinoyl = O=C(c1cccnc1)*; NMeC = CN[C@@H](CS)C(=O)O; dNMeC = CN[C@H](CS)C(=O)O; dDap = NC[C@@H](N)C(=O)O Some results are limits rather than exact numbers.

somatostatin receptor type 2 (SSTR2), sequence (P30874 whole entry): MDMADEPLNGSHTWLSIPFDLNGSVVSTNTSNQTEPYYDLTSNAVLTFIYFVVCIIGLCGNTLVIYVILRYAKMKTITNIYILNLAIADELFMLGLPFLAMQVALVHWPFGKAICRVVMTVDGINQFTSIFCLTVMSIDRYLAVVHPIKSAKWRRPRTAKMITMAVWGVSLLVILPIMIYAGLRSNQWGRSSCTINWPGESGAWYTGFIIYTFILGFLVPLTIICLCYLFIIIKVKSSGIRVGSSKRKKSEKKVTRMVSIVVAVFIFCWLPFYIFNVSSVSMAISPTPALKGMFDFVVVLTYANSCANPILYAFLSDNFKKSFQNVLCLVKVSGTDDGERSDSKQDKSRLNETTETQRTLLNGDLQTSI

B1: Compound 73: H-Cpa-[DCys-Tyr-DPhe(4-carbamoyl)-Lys-NMeThr-Cys]-DTyr-NH2 (peptide)
peptide: XXYXKXCX
HELM: PEPTIDE1{[N[C@@H](Cc1ccc(Cl)cc1)C(=O)[*:2]].[dC].Y.[NC(=O)c1ccc(C[C@@H](N[*:1])C(=O)[*:2])cc1].K.[meT].C.[dY].[am]}$PEPTIDE1,PEPTIDE1,2:R3-7:R3$$$V2.0
SMILES: C[C@@H](O)[C@H]1C(=O)N[C@H](C(=O)N[C@H](Cc2ccc(O)cc2)C(N)=O)CSSC[C@@H](NC(=O)[C@@H](N)Cc2ccc(Cl)cc2)C(=O)N[C@@H](Cc2ccc(O)cc2)C(=O)N[C@H](Cc2ccc(C(N)=O)cc2)C(=O)N[C@@H](CCCCN)C(=O)N1C
Take B1: the “IC50 (PathHunter β-Arrestin, antagonist mode)” value (“IC50” below) stood at 547 nM.

B2: Compound 77: H-(N-Me)Cpa-cyclo[D-Cys-Tyr-D-Phe(4-carbamoyl)-Lys-Thr-Cys]-D-Tyr-NH2 (peptide)
peptide: XXYXKTCX
HELM: PEPTIDE1{[CN[C@@H](Cc1ccc(Cl)cc1)C(=O)[*:2]].[dC].Y.[NC(=O)c1ccc(C[C@@H](N[*:1])C(=O)[*:2])cc1].K.T.C.[dY].[am]}$PEPTIDE1,PEPTIDE1,2:R3-7:R3$$$V2.0
SMILES: CN[C@@H](Cc1ccc(Cl)cc1)C(=O)N[C@@H]1CSSC[C@@H](C(=O)N[C@H](Cc2ccc(O)cc2)C(N)=O)NC(=O)[C@H]([C@@H](C)O)NC(=O)[C@H](CCCCN)NC(=O)[C@@H](Cc2ccc(C(N)=O)cc2)NC(=O)[C@H](Cc2ccc(O)cc2)NC1=O
On to B2, for which the “IC50” value amounted to 2.25 nM.

B3: Compound 32: H-Cpa-cyclo[D-Cys-Tyr-D-Phe(4-carbamoyl)-Lys(N-diMe)-Thr-Cys]-D-Tyr-NH2 (peptide)
peptide: H-[Phe(4-Cl)][dC]Y[dPhe(4-CONH2)]K(diMe)TC[dY]-NH2
modifications: disulfide 2-7
For B3, the “IC50” value is 2.46 nM.

B4: Compound 80: H-NMeCpa-[DCys-NMeTyr-DPhe(4-carbamoyl)-Lys-NMeThr-Cys]-NMeDTyr-NH2 (peptide)
peptide: H-[NMePhe(4-Cl)][dC][NMeY][dPhe(4-CONH2)]K[NMeT]C[dNMeY]-NH2
modifications: disulfide 2-7
SMILES: CN[C@@H](Cc1ccc(Cl)cc1)C(=O)N[C@@H]1CSSC[C@@H](C(=O)N(C)[C@H](Cc2ccc(O)cc2)C(N)=O)NC(=O)[C@H]([C@@H](C)O)N(C)C(=O)[C@H](CCCCN)NC(=O)[C@@H](Cc2ccc(C(N)=O)cc2)NC(=O)[C@H](Cc2ccc(O)cc2)N(C)C1=O
Consider B4, for which the “IC50” value is above 1000 nM.

B5: Compound 26: H-Cpa-cyclo[DCys-Tyr-D-(4-carbamoyl)Phe-(N-Acetyl)Lys-Thr-Cys]-DTyr-NH2 (peptide)
peptide: XXYXXTCX
HELM: PEPTIDE1{[N[C@@H](Cc1ccc(Cl)cc1)C(=O)[*:2]].[dC].Y.[NC(=O)c1ccc(C[C@@H](N[*:1])C(=O)[*:2])cc1].K.T.C.[dY].[am]}|PEPTIDE2{[ac]}$PEPTIDE1,PEPTIDE2,5:R3-1:R2|PEPTIDE1,PEPTIDE1,2:R3-7:R3$$$V2.0
SMILES: CC(=O)NCCCC[C@@H]1NC(=O)[C@@H](Cc2ccc(C(N)=O)cc2)NC(=O)[C@H](Cc2ccc(O)cc2)NC(=O)[C@H](NC(=O)[C@@H](N)Cc2ccc(Cl)cc2)CSSC[C@@H](C(=O)N[C@H](Cc2ccc(O)cc2)C(N)=O)NC(=O)[C@H]([C@@H](C)O)NC1=O
In the case of B5, the “IC50” value is above 1000 nM.

B6: Compound 28: H-Cpa-cyclo[DCys-Tyr-D-(4-(4-methoxyphenyl)ureido)Phe-Lys-Thr-Cys]-DTyr-NH2 (peptide)
peptide: XXYXKTCX
HELM: PEPTIDE1{[N[C@@H](Cc1ccc(Cl)cc1)C(=O)[*:2]].[dC].Y.[COc1ccc(NC(=O)Nc2ccc(C[C@@H](N[*:1])C(=O)[*:2])cc2)cc1].K.T.C.[dY].[am]}$PEPTIDE1,PEPTIDE1,2:R3-7:R3$$$V2.0
SMILES: COc1ccc(NC(=O)Nc2ccc(C[C@H]3NC(=O)[C@H](Cc4ccc(O)cc4)NC(=O)[C@H](NC(=O)[C@@H](N)Cc4ccc(Cl)cc4)CSSC[C@@H](C(=O)N[C@H](Cc4ccc(O)cc4)C(N)=O)NC(=O)[C@H]([C@@H](C)O)NC(=O)[C@H](CCCCN)NC3=O)cc2)cc1
Turning to B6, the “IC50” value was 104 nM.

B7: Compound 31: H-Cpa-cyclo[DCys-Tyr-D-Cit-(N-Me)Lys-Thr-Cys]-DTyr-NH2 (peptide)
peptide: H-[Phe(4-Cl)][dC]Y[dCit]K(Me)TC[dY]-NH2
modifications: disulfide 2-7
SMILES: CNCCCC[C@@H]1NC(=O)[C@@H](CCCNC(N)=O)NC(=O)[C@H](Cc2ccc(O)cc2)NC(=O)[C@H](NC(=O)[C@@H](N)Cc2ccc(Cl)cc2)CSSC[C@@H](C(=O)N[C@H](Cc2ccc(O)cc2)C(N)=O)NC(=O)[C@H]([C@@H](C)O)NC1=O
As to B7, the “IC50” value worked out at 70.4 nM.

B8: Compound 27: H-Cpa-cyclo[DCys-Tyr-D-(4-Benzamidophenyl)Phe-Lys-Thr-Cys]-DTyr-NH2 (peptide)
peptide: H-[Phe(4-Cl)][dC]Y[dPhe(4-benzamidophenyl)]KTC[dY]-NH2
modifications: disulfide 2-7
On to B8, for which the “IC50” value is 34.7 nM.

B9: Compound 72: H-Cpa-cyclo[DCys-Tyr-D-(4-carbamoyl)Phe-(N-alpha-Me)Lys-Thr-Cys]-DTyr-NH2 (peptide)
peptide: XXYXXTCX
HELM: PEPTIDE1{[N[C@@H](Cc1ccc(Cl)cc1)C(=O)[*:2]].[dC].Y.[NC(=O)c1ccc(C[C@@H](N[*:1])C(=O)[*:2])cc1].[meK].T.C.[dY].[am]}$PEPTIDE1,PEPTIDE1,2:R3-7:R3$$$V2.0
SMILES: C[C@@H](O)[C@@H]1NC(=O)[C@H](CCCCN)N(C)C(=O)[C@@H](Cc2ccc(C(N)=O)cc2)NC(=O)[C@H](Cc2ccc(O)cc2)NC(=O)[C@H](NC(=O)[C@@H](N)Cc2ccc(Cl)cc2)CSSC[C@@H](C(=O)N[C@H](Cc2ccc(O)cc2)C(N)=O)NC1=O
Consider B9, for which the “IC50” value turned out to be 5.77 nM.

B10: Compound 74: H-Cpa-[DCys-NMeTyr-DPhe(4-carbamoyl)-Lys-Thr-Cys]-DTyr-NH2 (peptide)
peptide: XXXXKTCX
HELM: PEPTIDE1{[N[C@@H](Cc1ccc(Cl)cc1)C(=O)[*:2]].[dC].[meY].[NC(=O)c1ccc(C[C@@H](N[*:1])C(=O)[*:2])cc1].K.T.C.[dY].[am]}$PEPTIDE1,PEPTIDE1,2:R3-7:R3$$$V2.0
SMILES: C[C@@H](O)[C@@H]1NC(=O)[C@H](CCCCN)NC(=O)[C@@H](Cc2ccc(C(N)=O)cc2)NC(=O)[C@H](Cc2ccc(O)cc2)N(C)C(=O)[C@H](NC(=O)[C@@H](N)Cc2ccc(Cl)cc2)CSSC[C@@H](C(=O)N[C@H](Cc2ccc(O)cc2)C(N)=O)NC1=O
For the molecule B10, the “IC50” value came to 159 nM.

B11: Compound 76: H-Cpa-[DCys-Tyr-DPhe(4-carbamoyl)-Lys-Thr-NMeCys]-DTyr-NH2 (peptide)
peptide: H-[Phe(4-Cl)][dC]Y[dPhe(4-CONH2)]KT[NMeC][dY]-NH2
modifications: disulfide 2-7
SMILES: C[C@@H](O)[C@@H]1NC(=O)[C@H](CCCCN)NC(=O)[C@@H](Cc2ccc(C(N)=O)cc2)NC(=O)[C@H](Cc2ccc(O)cc2)NC(=O)[C@H](NC(=O)[C@@H](N)Cc2ccc(Cl)cc2)CSSC[C@@H](C(=O)N[C@H](Cc2ccc(O)cc2)C(N)=O)N(C)C1=O
B11: the “IC50” value was 400 nM.

B12: Compound 29: H-Cpa-cyclo[DCys-Tyr-D-(4-carbamoyl)Phe-Arg-Thr-Cys]-DTyr-NH2 (peptide)
peptide: XXYXRTCX
HELM: PEPTIDE1{[N[C@@H](Cc1ccc(Cl)cc1)C(=O)[*:2]].[dC].Y.[NC(=O)c1ccc(C[C@@H](N[*:1])C(=O)[*:2])cc1].R.T.C.[dY].[am]}$PEPTIDE1,PEPTIDE1,2:R3-7:R3$$$V2.0
SMILES: C[C@@H](O)[C@@H]1NC(=O)[C@H](CCCNC(=N)N)NC(=O)[C@@H](Cc2ccc(C(N)=O)cc2)NC(=O)[C@H](Cc2ccc(O)cc2)NC(=O)[C@H](NC(=O)[C@@H](N)Cc2ccc(Cl)cc2)CSSC[C@@H](C(=O)N[C@H](Cc2ccc(O)cc2)C(N)=O)NC1=O
For B12, the “IC50” value came to 398 nM.

B13: Compound 75: H-Cpa-[DCys-NMeTyr-DPhe(4-carbamoyl)-Lys-NMeThr-Cys]-DTyr-NH2 (peptide)
peptide: XXXXKXCX
HELM: PEPTIDE1{[N[C@@H](Cc1ccc(Cl)cc1)C(=O)[*:2]].[dC].[meY].[NC(=O)c1ccc(C[C@@H](N[*:1])C(=O)[*:2])cc1].K.[meT].C.[dY].[am]}$PEPTIDE1,PEPTIDE1,2:R3-7:R3$$$V2.0
SMILES: C[C@@H](O)[C@H]1C(=O)N[C@H](C(=O)N[C@H](Cc2ccc(O)cc2)C(N)=O)CSSC[C@@H](NC(=O)[C@@H](N)Cc2ccc(Cl)cc2)C(=O)N(C)[C@@H](Cc2ccc(O)cc2)C(=O)N[C@H](Cc2ccc(C(N)=O)cc2)C(=O)N[C@@H](CCCCN)C(=O)N1C
In the case of B13, the “IC50” value is above 1000 nM.

B14: Compound 79: H-Cpa-[DCys-Tyr-DPhe(4-carbamoyl)-Lys-Thr-Cys]-NMeDTyr-NH2 (peptide)
peptide: H-[Phe(4-Cl)][dC]Y[dPhe(4-CONH2)]KTC[dNMeY]-NH2
modifications: disulfide 2-7
SMILES: C[C@@H](O)[C@@H]1NC(=O)[C@H](CCCCN)NC(=O)[C@@H](Cc2ccc(C(N)=O)cc2)NC(=O)[C@H](Cc2ccc(O)cc2)NC(=O)[C@H](NC(=O)[C@@H](N)Cc2ccc(Cl)cc2)CSSC[C@@H](C(=O)N(C)[C@H](Cc2ccc(O)cc2)C(N)=O)NC1=O
Turning to B14, the “IC50” value was 28.7 nM.

B15: Compound 30: H-Cpa-cyclo[D-Cys-Tyr-D-Lys(Nε-nicotinoyl)-Lys(Nε-Me)-Thr-Cys]-D-Tyr-NH2 (peptide)
peptide: H-[Phe(4-Cl)][dC]Y[dK](Nicotinoyl)K(Me)TC[dY]-NH2
modifications: disulfide 2-7
SMILES: CNCCCC[C@@H]1NC(=O)[C@@H](CCCCNC(=O)c2cccnc2)NC(=O)[C@H](Cc2ccc(O)cc2)NC(=O)[C@H](NC(=O)[C@@H](N)Cc2ccc(Cl)cc2)CSSC[C@@H](C(=O)N[C@H](Cc2ccc(O)cc2)C(N)=O)NC(=O)[C@H]([C@@H](C)O)NC1=O
B15: the “IC50” value came to 177 nM.

B16: Compound 78: H-Cpa-[NMeDCys-Tyr-DPhe(4-carbamoyl)-Lys-Thr-Cys]-DTyr-NH2 (peptide)
peptide: H-[Phe(4-Cl)][dNMeC]Y[dPhe(4-CONH2)]KTC[dY]-NH2
modifications: disulfide 2-7
SMILES: C[C@@H](O)[C@@H]1NC(=O)[C@H](CCCCN)NC(=O)[C@@H](Cc2ccc(C(N)=O)cc2)NC(=O)[C@H](Cc2ccc(O)cc2)NC(=O)[C@H](N(C)C(=O)[C@@H](N)Cc2ccc(Cl)cc2)CSSC[C@@H](C(=O)N[C@H](Cc2ccc(O)cc2)C(N)=O)NC1=O
Turning to B16, the “IC50” value was determined as 6.79 nM.

B17: Compound 71: H-Cpa-cyclo[DDap-Tyr-DPhe(4-CONH2)-Lys(Me)-Thr-Asp]-DTyr-NH2 (peptide)
peptide: H-[Phe(4-Cl)][dDap]Y[dPhe(4-CONH2)]K(Me)TD[dY]-NH2
modifications: lactam 2-7; not fully specified; printed as H-Cpa-cyclo[DDap-Tyr-DPhe(4-CONH2)-Lys(Me)-Thr-Asp]-DTyr-NH2
B17: the “IC50” value is 13.3 nM.

B18: Compound 25: H-Cpa-cyclo[D-Cys-Tyr-D-Phe(4-phenylureido)-Lys(Nε-Me)-Thr-Cys]-D-Tyr-NH2 (peptide)
peptide: H-[Phe(4-Cl)][dC]Y[dPhe(4-phenylureido)]K(Me)TC[dY]-NH2
modifications: disulfide 2-7
SMILES: CNCCCC[C@@H]1NC(=O)[C@@H](Cc2ccc(NC(=O)Nc3ccccc3)cc2)NC(=O)[C@H](Cc2ccc(O)cc2)NC(=O)[C@H](NC(=O)[C@@H](N)Cc2ccc(Cl)cc2)CSSC[C@@H](C(=O)N[C@H](Cc2ccc(O)cc2)C(N)=O)NC(=O)[C@H]([C@@H](C)O)NC1=O
In the case of B18, the “IC50” value came out at 2.32 nM.
